Experimental data as given in publication PMC4851294 (PLoS ONE, 2016).

Assays:
[1] = target: T1, 3-deoxy-D-arabino-heptulosonate 7-phosphate synthase (MtuDAH7PS) (Mycobacterium tuberculosis, UniProt O53512); experiment: X-ray crystal structure (with D/L-Trp); format: binding
T1 construct: gene aroG; chain length 464 residues, homotetramer

C=C(OP(=O)(O)O)C(=O)O = experiment: purified protein

T1 sequence (O53512 whole entry): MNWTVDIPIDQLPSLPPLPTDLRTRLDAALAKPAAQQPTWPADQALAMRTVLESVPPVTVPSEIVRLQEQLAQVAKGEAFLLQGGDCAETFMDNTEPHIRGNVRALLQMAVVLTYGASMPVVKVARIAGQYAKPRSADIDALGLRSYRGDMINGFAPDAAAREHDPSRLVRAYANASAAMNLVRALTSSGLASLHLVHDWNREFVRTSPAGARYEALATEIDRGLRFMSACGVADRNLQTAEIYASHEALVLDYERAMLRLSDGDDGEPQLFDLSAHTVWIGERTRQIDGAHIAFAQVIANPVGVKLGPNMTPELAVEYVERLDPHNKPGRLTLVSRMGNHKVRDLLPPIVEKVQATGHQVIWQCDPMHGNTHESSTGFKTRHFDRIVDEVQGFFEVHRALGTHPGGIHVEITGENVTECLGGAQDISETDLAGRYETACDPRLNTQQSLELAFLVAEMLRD

| Molecule | X-ray crystal structure (with D/L-Trp) [1] | Km (C=C(OP(=O)(O)O)C(=O)O) | kcat (C=C(OP(=O)(O)O)C(=O)O) | kcat/Km (C=C(OP(=O)(O)O)C(=O)O) |
| --- | --- | --- | --- | --- |
| N[C@@H](Cc1ccccc1)C(=O)O [L-Phe] | The Phe site in the structure obtained from these soaking conditions is occupied by L-Phe | – | – | – |
| 3-deoxy-D-arabino-heptulosonate 7-phosphate synthase (MtuDAH7PS) (Mycobacterium tuberculosis H37Rv) | – | 37 ± 4 µM | 4.7 ± 0.1 s⁻¹ | 130000 ± 20000 M⁻¹ s⁻¹ |
